From patent publication US20200140552A1 (Sanofi, published 2020) come the findings set out here.

Assay [1] has as its target T1, recombinant human CD38 (SPR antigen of Example 2) (human, UniProt P28907 43-300). In words: SPR; KD rounded to integer; the cell gives two values for mid/low, the first taken as the CD3mid construct. Background: In SPR one partner is held on a chip, and binding of the other changes the refractive index at the surface.
Assay [2] addresses T2, human CD3 (SPR antigen of Example 2) (human).
T2 chain: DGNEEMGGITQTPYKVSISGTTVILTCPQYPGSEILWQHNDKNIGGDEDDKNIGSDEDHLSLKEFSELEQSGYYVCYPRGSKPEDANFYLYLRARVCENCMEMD
The description is as above.

Assay [3] concerns the target human CD28 (SPR antigen of Example 2) (human, UniProt P10747 19-152). The assay is described as above.
The target of assay [4] is T3, human CD38 expressed on the surface of recombinant murine preB::300.19 cells (human, UniProt P28907 1-300).
T3 construct: whole, on cells; also called hCD38-expressing cells; cells expressing human CD38
As to the kind of experiment: flow cytometry on hCD38-expressing murine preB::300.19 cells. (A flow cytometer gives signals particle by particle.)

Assay [5] concerns the target T1, recombinant human CD38 (SPR antigen of …). As to the kind of experiment: SPR against recombinant protein; the cell gives two values for mid/low, the first taken as the CD3mid construct.
The target in assay [6] is T3, human CD38 expressed on the surface of …. As to the kind of experiment: flow cytometry on hCD38-expressing murine preB::300.19 cells, apparent KD (called EC50 in paragraph 336).
The target in assay [7] is T4, cynomolgus monkey CD38 expressed on the surface of recombinant murine preB::300.19 cells (cynomolgus monkey, UniProt Q5VAN0 1-301).
T4 construct: whole, on cells; also called cCD38-expressing cells; cells expressing cynomolgus CD38
As to the kind of experiment: flow cytometry on cCD38-expressing murine preB::300.19 cells, apparent KD (called EC50 in paragraph 336).

For assay [8], the target named is T4, cynomolgus monkey CD38 expressed on the …. As to the kind of experiment: flow cytometry on cCD38-expressing murine preB::300.19 cells.
For assay [9], the target named is T1, recombinant human CD38 (SPR antigen of …). As to the kind of experiment: SPR, target binding without other targets present.
Assay [10] has the same target. As to the kind of experiment: SPR, target binding with the other two targets in saturation.
The target in assay [11] is T3, human CD38 expressed on the surface of …. In words: flow cytometry on hCD38-expressing murine preB::300.19 cells, apparent KD (called EC50 in paragraph 335).
The target of a further assay is T5, cCD38-his (SEQ ID NO: 4) (cynomolgus monkey, UniProt Q5VAN0 46-301).
T5 construct: also called cyno CD38-histag (ID3); soluble extracellular domain of cynomolgusCD38
In words: SPR (summary table; Table K value rounded).

For the next assay, the target named is T6, hCD38-his (SEQ ID NO: 2) (human, UniProt P28907 45-300).
T6 construct: also called human CD38-histag (ID2); soluble extracellular domain of humanCD38
In words: SPR (summary table; Table K value rounded).

Assay [12] deals with T3, human CD38 expressed on the surface of …. In words: flow cytometry on CD38-expressing murine preB::300.19 cells, apparent KD.

Where a chain is given by its changes, count along the chain named.

B1: CD38VH1xCD28cvnxCD3mid trispecific binding protein (other)
VH 1: QVQLQESGPGLVKPSQTLSLTCTVSGFSLSDYGVHWVRQPPGKGLEWLGVIWAGGGTNYNPSLKSRKTISKDTSKNQVSLKLSSVTAADTAVYYCARDKGYSYYYSMDYWGQGTTVTVS
VL 1: DIVLTQSPASLAVSPGQRATITCRASESVEYYVTSLMQWYQQKPGQPPKLLIFAASNVESGVPARFSGSGSGTDFTLTINPVEANDVANYYCQQSRKVPYTFGQGTKLEIK
VH 2: QVQLVESGGGVVQPGRSLRLSCAASGFTFTKAWMHWVRQAPGKQLEWVAQIKDKSNSYATYYADSVKGRFTISRDDSKNTLYLQMNSLRAEDTAVYYCRGVYYALSPFDYWGQGTLVTVSS
VL 2: DIVMTQTPLSLSVTPGQPASISCKSSQSLVHNNANTYLSWYLQKPGQSPQSLIYKVSNRFSGVPDRFSGSGSGTDFTLKISRVEAEDVGVYYCGQGTQYPFTFGSGTKVEIK
VH 3: QVQLVQSGAEVVKPGASVKVSCKASGYTFTSYAMHWVKEAPGQRLEWIGYIYPGQGGTNYNQKFQGRATLTADTSASTAYMELSSLRSEDTAVYFCARTGGLRRAYFTYWGQGTLVTVSS
VL 3: DIVLTQSPATLSLSPGERATISCRASQSVSSYGQGFMHWYQQKPGQPPRLLIYGASSRATGIPARFSGSGSGTDFTLTISPLEPEDFAVYYCQQNKEDPWTFGGGTKLEIK
Regarding B1, the Kd in assay [1] was found to be 4 nM; in [2], 23 nM; in assay [3], 18 nM; in assay [5] it was 4 nM; in assay [6] it was 4.4 nM; in assay [7], 7.5 nM. For the same molecule, the “fold lower apparent affinity than the parental antiCD38_C2-CD38-1_VH1-VL1 antibody” value came out at 9 fold in assay [4] and 7.5 fold in assay [8].

B2: CD38SB19xCD28supxCD3mid trispecific binding protein (other)
VH 1: QVQLVQSGAEVVKPGASVKVSCKASGYTFTSYYIHWVRQAPGQGLEWIGSIYPGNVNTNYAQKFQGRATLTVDTSISTAYMELSRLRSDDTAVYYCTRSHYGLDWNFDVWGKGTTVTVSS
VL 1: DIQMTQSPSSLSASVGDRVTITCQASQNIYVWLNWYQQKPGKAPKLLIYKASNLHTGVPSRFSGSGSGTDFTLTISSLQPEDIATYYCQQGQTYPYTFGQGTKLEIK
VH 2: B1 VH 2
VL 2: B1 VL 2
VH 3: QVQLVQSGAEVAKPGTSVKLSCKASGYTFTDYWMQWVKQRPGQGLEWIGTIYPGDGDTGYAQKFQGKATLTADKSSKTVYMHLSSLASEDSAVYYCARGDYYGSNSLDYWGQGTSVTVSS
VL 3: DIVMTQSHLSMSTSLGDPVSITCKASQDVSTVVAWYQQKPGQSPRRLIYSASYRYIGVPDRFTGSGAGTDFTFTISSVQAEDLAVYYCQQHYSPPYTFGGGTKLEIK
For the molecule B2, the figures for the Kd in assay [9], in assay [10] and in assay [11] were 1.75 nM, 2.42 nM and 4 nM, respectively.

B3: antiCD38_C2-CD38-1_VH6-VL3 (antibody, human IgG1, kappa, V domains shown)
VH: B1 VH 3 with V20M, Y32F, A33N, Q55N, L83I
VL: DIVLTQSPATLSLSPGERATISCRASESVDSYGNGFMHWYQQKPGQPPRLLIYLASSRATGIPARFSGSGSGTDFTLTISPLEPEDFAVYYCQQNKEDPWTFGGGTKLEIKR
Consider B3, for which the Kd was 0.56 nM with cCD38-his (SEQ ID NO: 4) and 0.31 nM with hCD38-his (SEQ ID NO: 2).

B4: antiCD38_C2-CD38-1_VH5-VL3 (antibody, human IgG1, kappa, V domains shown)
VH: B1 VH 3 with P14S, Y32F, A33N, R44G, Q55N, L83I
VL: B3 VL
In the case of B4, the Kd with hCD38-his (SEQ ID NO: 2) came out at 0.82 nM; in assay [12], 0.55 nM.
